These results are taken from article PMC10033316, “Expression of GnT-III decreases chemoresistance via negatively regulating P-glycoprotein expression: Involvement of the TNFR2-NF-κB signaling pathway” (The Journal of Biological Chemistry, 2023).

The data set deals with the molecule itself. In words: cross-linking; cells without TNFα stimulation, 1 mM BS3 for 30 min at room temperature on whole cells; RIPA lysate, nonreducing SDS-PAGE, anti-Flag blot.

B1: TNF receptor 2 (TNFR2) with a 3x FLAG tag, overexpressed in K562/ADR cells (bisected N-glycans lacking) (receptor, human, UniProt P20333 23-461, looked up)
chain: LPAQVAFTPYAPEPGSTCRLREYYDQTAQMCCSKCSPGQHAKVFCTKTSDTVCDSCEDSTYTQLWNWVPECLSCGSRCSSDQVETQACTREQNRICTCRPGWYCALSKQEGCRLCAPLRKCRPGFGVARPGTETSDVVCKPCAPGTFSNTTSSTDICRPHQICNVVAIPGNASMDAVCTSTSPTRSMAPGAVHLPQPVSTRSQHTQPTPEPSTAPSTSFLLPMGPSPPAEGSTGDFALPVGLIVGVTALGLLIIGVVNCVIMTQVKKKPLCLQREAKVPHLPADKARGTQGPEQQHLLITAPSSSSSSLESSASALDRRAPTRNQPQAPGVEASGAGEARASTGSSDSSPGGHGTQVNVTCIVNVCSSSDHSSQCSSQASSTMGDTDSSPSESPKDEQVPFSKEECAFRSQLETPETLLGSTEEKPLPLGVPDAGMKPS
modifications: N-glycosylated; modification by bisected N-glycans on TNFR2 significantly suppressed in K562/ADR cells
notes: TNF receptor 2 (TNFR2), human, cDNA cloned from K562 cells; Same construct as m1; host K562/ADR cells have very low GnT-III; also called TNFR2-Flag; source: K562/ADR cells infected by virus with the CSIV-TRE-RfA-CMV-KT-TNFR2 plasmid, on the cell surface; not shown: 3x FLAG, C-terminal, kept
As usually defined, the stoichiometry N is a count of units in the complex or per binding partner. Consider B1, for which the “stoichiometry N” value turned out to be 3.
